Measurements taken from paper PMC1769423, “Different Quaternary Structures of Human RECQ1 Are Associated with Its Dual Enzymatic Activity” (PLoS Biology, 2007).
Substitutions are numbered along the chain they refer to. Numbers in names are those of the source.

B1: RECQ1(K119R) (human RECQ1, ATPase-deficient Walker A mutant) (enzyme, UniProt P46063 1-649, looked up)
chain: MASVSALTEELDSITSELHAVEIQIQELTERQQELIQKKKVLTKKIKQCLEDSDAGASNEYDSSPAAWNKEDFPWSGKVKDILQNVFKLEKFRPLQLETINVTMAGKEVFLVMPTGGGRSLCYQLPALCSDGFTLVICPLISLMEDQLMVLKQLGISATMLNASSSKEHVKWVHAEMVNKNSELKLIYVTPEKIAKSKMFMSRLEKAYEARRFTRIAVDEVHCCSQWGHDFRPDYKALGILKRQFPNASLIGLTATATNHVLTDAQKILCIEKCFTFTASFNRPNLYYEVRQKPSNTEDFIEDIVKLINGRYKGQSGIIYCFSQKDSEQVTVSLQNLGIHAGAYHANLEPEDKTTVHRKWSANEIQVVVATVAFGMGIDKPDVRFVIHHSMSKSMENYYQESGRAGRDDMKADCILYYGFGDIFRISSMVVMENVGQQKLYEMVSYCQNISKCRRVLMAQHFDEVWNSEACNKMCDNCCKDSAFERKNITEYCRDLIKILKQAEELNEKLTPLKLIDSWMGKGAAKLRVAGVVAPTLPREDLEKIIAHFLIQQYLKEDYSFTAYATISYLKIGPKANLLNNEAHAITMQVTKSTQNSFRAESSQTCHSEQGDKKMEEKNSGNFQKKAANMLQQSGSKNTGAKKRKIDDA
notes: human RECQ1 helicase (alias RECQL), the 649-amino acid variant, with K119R in ATPase motif I (Walker A box); also called RECQ1 K119R mutant; His6-K119R RECQ1 mutant; source: baculovirus/Sf9 cells, purified; not shown: His6, N-terminal, kept
B2: untagged RECQ1 (utRECQ1; human RECQ1 helicase after removal of the N-terminal His6-tag) (enzyme, UniProt P46063 1-649, looked up)
chain: B1 chain with R119K
notes: human RECQ1 helicase (alias RECQL), the 649-amino acid variant; also called untagged wild-type RECQ1; source: baculovirus/Sf9 cells, purified; not shown: His6, N-terminal, cleaved

Experiments:
[1] = biological target: the molecule itself; test: negative-stain transmission electron microscopy; as a2 but with 2-5 mM ATP or ATPγS, with or without oligo(dT)30
[2] = biological target: the molecule itself; test: SEC; Superdex200 HR 10/30, 20 mM Tris pH 7.5, 150 mM KCl, 1 mM DTT; about 40 ug RECQ1 loaded at 1 uM; alone, with oligo(dT)40 or oligo(dT)30 and/or 1 mM ATP or ATPγS in the elution buffer; also 100-500 mM salt and 0.1-35 uM protein

Protein	binding result [1]	binding result [2]
B1	binds	–
B2	–	binds
